Non-standard residues stand in square brackets, D forms with d. No end group written: not given here. pT = C[C@@H](OP(=O)(O)O)[C@H](N)C(=O)O; pS = N[C@@H](COP(=O)(O)O)C(=O)O
How the values were obtained:
HLA-A*0201 [1] = target: T1, HLA-A*0201 (human); assay: competition with iodinated [..] for purified HLA-A*0201 plus β2M, capture on W6/32 plates
T1 construct: also called HLA-A2

HLA-A*0201 [2] = target: T1, HLA-A*0201; assay: HLA-A2 binding affinity
HLA-A*0201 [3] = target: T1, HLA-A*0201; assay: competition binding assay on purified HLA-A*0201
HLA-B*0702 [4] = target: T2, HLA-B*0702 (human); assay: HLA-B7 eluate MS; ALL1; 2 means 1-5 copies/cell
T2 construct: also called HLA-B7

HLA-B*0702 [5] = target: T2, HLA-B*0702; assay: HLA-B7 eluate MS; AML1; 3 means 6-25 copies/cell
HLA-B*0702 [6] = target: T2, HLA-B*0702; assay: HLA-B7 eluate MS; ALL1; 4 means >25 copies/cell
HLA-A*0201 [7] = target: T1, HLA-A*0201; assay: HLA-A2 binding affinity, method not described
HLA-B*0702 [8] = target: T2, HLA-B*0702; assay: HLA-B7 eluate MS; ALL1; 3 means 6-25 copies/cell
HLA-B*0702 [9] = target: T2, HLA-B*0702; assay: HLA-B7 eluate MS; AML1; 4 means >25 copies/cell
HLA-A*0201 [10] = target: T1, HLA-A*0201; assay: MS of HLA-A*0201 (BB7.2) eluate; cultured melanocytes; ++ means 5-50 copies/cell
HLA-A*0201 [11] = target: T1, HLA-A*0201; assay: MS of HLA-A*0201 (BB7.2) eluate; cultured melanocytes; +++ means 50-500 copies/cell
HLA-A*0201 [12] = target: T1, HLA-A*0201; assay: HLA-A2 eluate MS; CLL2; 1 means <1 copy/cell
HLA-A*0201 [13] = target: T1, HLA-A*0201; assay: HLA-A2 eluate MS; CLL4; 1 means <1 copy/cell
HLA B*0702 [14] = target: T3, HLA B*0702 (human); assay: MS of peptides eluted from HLA; L/M column: L/M
T3 construct: Class I MHC molecule of the cells from which the associated phosphopeptides were detected; also called HLA-B7

HLA B*0702 [15] = target: T3, HLA B*0702; assay: MS of peptides eluted from HLA; L/M column: M
HLA B*0702 [16] = target: T3, HLA B*0702; assay: MS of peptides eluted from HLA; L/M column: empty
HLA-A*0201 [17] = target: T1, HLA-A*0201; assay: not described

B1: pS33-βcat30 (YLD(pS)GIHSGA, β-catenin 30-39 with phosphoserine 33) (peptide)
peptide: YLD[pS]GIHSGA
notes: also called pS33-βcatenin30-39; YLDsGIHSGA
B1 was tested, and the IC50 (HLA-A*0201 [1]) was 0.327 µg/mL.

B2: pS33-βcat(V)30 (YLDsGIHSGV) (peptide)
peptide: YLD[pS]GIHSGV
notes: also called pS33-βcatenin30-39(V); modified phosphopeptide
In the case of B2, the “fold enhancement of HLA-A2 binding affinity over pS33-βcatenin30-39” value (HLA-A*0201 [2]) is reported as about 10 fold, the IC50 (HLA-A*0201 [1]) is reported as 0.041 µg/mL and the “fold higher HLA-A*0201 binding affinity than pS33-βcat30” value (HLA-A*0201 [3]) is reported as 8 fold.

B3: GRK2 phosphopeptide KPRsPVVEL (peptide)
peptide: KPR[pS]PVVEL
notes: also called Beta-Adrenergic receptor kinase 1
B3: binds (HLA-B*0702 [4]).

KPY[pS]PLASL [NFATC2 phosphopeptide KPYsPLASL]: binds (HLA-B*0702 [4]).

QPR[pS]PGPDYSL [GFI1 phosphopeptide QPRsPGPDYSL]: binds (HLA-B*0702 [5]).

RAP[pS]PSSRM [SRRM2 phosphopeptide RAPsPSSRM]: binds (HLA-B*0702 [6]).

RPAK[pS]MDSL [ARHGAP30 phosphopeptide RPAKsMDSL]: binds (HLA-B*0702 [4]).

RPA[pS]AGAML [MEF2D phosphopeptide RPAsAGAML]: binds (HLA-B*0702 [6]).

IMDR[pT]PEKL (also called natural BCAR3pT130) [BCAR3 phosphopeptide IMDRtPEKL]: binds (HLA-A*0201 [7]).

RPA[pS]PAAKL [KIAA1310 phosphopeptide RPAsPAAKL]: binds (HLA-B*0702 [4]).

RPD[pS]RLGKTEL [SETD2 phosphopeptide RPDsRLGKTEL]: binds (HLA-B*0702 [4]).

RPKPSS[pS]PV [PCBP2 phosphopeptide RPKPSSsPV]: binds (HLA-B*0702 [4]).

RPP[pS]PGPVL [SCAP phosphopeptide RPPsPGPVL]: binds (HLA-B*0702 [4]).

RPP[pS]SEFLDL [RERE phosphopeptide RPPsSEFLDL]: binds (HLA-B*0702 [8]).

RPQRA[pT]SNVF [MYL9 phosphopeptide RPQRAtSNVF]: binds (HLA-B*0702 [6]).

RPR[pS]PTGP (also called Splicing factor 45) [RBM17 phosphopeptide RPRsPTGP]: binds (HLA-B*0702 [9]).

RPV[pS]PFQEL [phosphopeptide RPVsPFQEL (no gene name in Table 7; no database hit)]: binds (HLA-B*0702 [8]).

RPV[pT]PVSDL [KLF10 phosphopeptide RPVtPVSDL]: binds (HLA-B*0702 [6]).

RPY[pS]PPFFSL [FAM53C phosphopeptide RPYsPPFFSL]: binds (HLA-B*0702 [4]).

RRK[pS]QVAEL [MKI67IP phosphopeptide RRKsQVAEL]: binds (HLA-B*0702 [9]).

RSL[pS]PLLF [VPS13D phosphopeptide RSLsPLLF]: binds (HLA-B*0702 [4]).

SPRR[pS]RSISL [SFRS7 phosphopeptide SPRRsRSISL]: binds (HLA-B*0702 [9]).

B4: pS33/S37-βcat30 (doubly phosphorylated β-catenin 30-39) (peptide)
peptide: YLD[pS]GIH[pS]GA
notes: also called pS33/pS37-βcat30; pS33/37-βcat30
B4 gave an IC50 (HLA-A*0201 [1]) of 0.678 µg/mL.

B5: β-Synemin phosphopeptide RTFpSPTYGL (peptide)
peptide: RTF[pS]PTYGL
notes: also called SYNM; pS429-β-Synemin426-434
B5: binds (HLA-A*0201 [10]).

RLS[pS]PLHFV (also called Protein FAM134A) [ORF 17, chromosome 2 phosphopeptide RLSpSPLHFV]: binds (HLA-A*0201 [11]).

RQI[pS]QDVKL (also called AMPD2) [Adenosine monophosphate deaminase 2 phosphopeptide RQIpSQDVKL]: binds (HLA-A*0201 [10]).

RQL[pS]SGVSEI (also called HSPB1) [Heat shock protein 27 (HSP27) phosphopeptide RQLpSSGVSEI]: binds (HLA-A*0201 [11]).

RLL[pS]PLSSA (also called RAVER1) [phosphopeptide RLLpSPLSSA (source protein Unknown in Table 5)]: binds (HLA-A*0201 [10]).

RQD[pS]TPGKVFL (also called NR2C1) [Nuclear hormone receptor TR2 phosphopeptide RQDpSTPGKVFL]: binds (HLA-A*0201 [10]).

KAK[pS]PAPGL [NCOR2 phosphopeptide KAKsPAPGL]: binds (HLA-A*0201 [12]).

KMD[pS]FLDMQL [N4BP2 phosphopeptide KMDsFLDMQL]: binds (HLA-A*0201 [13]).

KPR[pS]PVVEL [KPRsPVVEL]: binds (HLA B*0702 [14]).

RPA[pS]ARAQPGL [RPAsARAQPGL]: binds (HLA B*0702 [14]).

RPA[pS]PAAKL [RPAsPAAKL]: binds (HLA B*0702 [15]).

RPV[pS]PFQEL [RPVsPFQEL]: binds (HLA B*0702 [16]).

SPRR[pS]RSISL [SPRRsRSISL]: binds (HLA B*0702 [14]).

FRR[pS]PTKSSLDY [RBM14 phosphopeptide FRRsPTKSSLDY]: binds (HLA-B*0702 [9]).

FSI[pS]PVRL [SON phosphopeptide FSIsPVRL]: binds (HLA-B*0702 [6]).

KPPH[pS]PLVL [MYC phosphopeptide KPPHsPLVL]: binds (HLA-B*0702 [6]).

KPP[pT]PGASF [SPEN phosphopeptide KPPtPGASF]: binds (HLA-B*0702 [8]).

RVA[pS]PTSGVK (also called RVAk) [IRS2 phosphopeptide RVAsPTSGVK]: no binding (HLA-A*0201 [17]).

RVA[pS]PTSGVKR [IRS2 phosphopeptide RVApSPTSGVKR]: no binding (HLA-A*0201 [17]).

Source: patent publication US20150224182A1 (UNIVERSITY OF VIRGINIA PATENT FOUNDATION, published 2015)
